Measurements from paper PMC3265493, “Inhibitory Potential of Prodomain of Plasmodium falciparum Protease Serine Repeat Antigen 5 for Asexual Blood Stages of Parasite” (PLoS ONE, 2012).

Biological target: T1, SERA5 catalytic domain (SERA5 C) (Plasmodium falciparum 3D7, UniProt Q9TY95 578-828)
T1 construct: Plasmodium falciparum 3D7 serine repeat antigen 5 (SERA5), PlasmoDB PFB0340c, 251-residue enzyme (catalytic) domain E578 to N828, amplified from cDNA; Cloned in pProExHTb between BamHI and XhoI with N-terminal hexahistidine tag; no tag removal is described; also called enzyme domain
T1 sequence: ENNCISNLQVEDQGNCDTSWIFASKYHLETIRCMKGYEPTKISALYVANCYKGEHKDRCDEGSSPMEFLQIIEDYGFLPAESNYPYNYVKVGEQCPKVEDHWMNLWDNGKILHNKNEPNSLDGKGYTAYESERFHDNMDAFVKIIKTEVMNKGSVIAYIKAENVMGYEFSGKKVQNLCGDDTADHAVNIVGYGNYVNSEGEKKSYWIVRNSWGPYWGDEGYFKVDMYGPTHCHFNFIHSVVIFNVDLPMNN
Assay: CD spectroscopy; CD spectra of SERA5 C (5 uM) in PBS pH 7.4 alone and with 5 uM peptide (1:1 molar ratio), 25 C
Conditions: both partners purified

B1: heptapeptide DNSDNMF (D560 to F566 of SERA5 sequence) (peptide)
peptide: DNSDNMF
notes: C-terminal region of the prodomain of Plasmodium falciparum serine repeat antigen 5 (SERA5), residues D560 to F566; Made on Rink amide resin, so the C-terminus is probably an amide; also called the heptapeptide; the peptide; source: synthetic peptide (solid phase, Fmoc chemistry, Rink Amide MHBA resin; RP-HPLC purified)
binding result: binds
